Patent US20230218738A1 (Pfizer, published 2023)

B1: AM22 (antibody, V domains shown)
VH: QVQLVQSGAEVKKPGATVKVSCKISGHTLIKLSIHWVRQAPGKGLEWMGGYEGEVDEIFYAQKFQHRLTVIADTATDTVYMELGRLTSDDTAVYFCGTLGVTVTEAGLGIDDYWGQGTLVTVSS
VL: EIVLTQSPGTLSLSPGERATLSCRASQIVSRNHLAWYQQKPGQAPRLLIFGASSRATGIPVRFSGSGSGTDFTLTINGLAPEDFAVYYCLSSDSSIFTFGPGTKVDFK
B2: MPE8 (antibody, V domains shown)
VH: EVQLVESGGGLVKPGGSLRLSCAASGFTFSSYSMNWVRQAPGKGLEWVSSISASSSYSDYADSAKGRFTISRDNAKTSLFLQMNSLRAEDTAIYFCARARATGYSSITPYFDIWGQGTLVTVSS
VL: QSVVTQTPSVSGAPGQRVTISCTGSSSNIGAGYDVHWYQQLPGTAPKLLIYDNNNRPSGVPDRFSASKSGTSASLAITGLQAEDEADYYCQSYDRNLSGVFGTGTKVTVL
notes: also called MPEG

Columns and labels:
Assay in all cases: BLI (Octet), F on anti-HIS tip, 20 nM mAb
[1] = target: RSV F protein mutant pXCS878 (RSV A2, UniProt P03420 26-109)
[2] = target: RSV F protein mutant pXCS874 (RSV A2, UniProt P03420 26-109)
[3] = target: RSV F protein mutant pXCS877 (RSV A2, UniProt P03420 26-109)
[4] = target: RSV F protein mutant pXCS806 (RSV A2, UniProt P03420 26-109)
[5] = target: RSV F protein mutant pXCS809 (RSV A2, UniProt P03420 26-109)
[6] = target: RSV F protein mutant pXCS875 (RSV A2, UniProt P03420 26-109)
DS-Cav1 = DS-Cav1 (UniProt P03420 26-513)
[7] = target: RSV F protein mutant pXCS839 (RSV A2, UniProt P03420 26-109)
[8] = target: RSV F protein mutant pXCS805 (RSV A2, UniProt P03420 26-109)
[9] = target: RSV F protein mutant pXCS776 (RSV A2, UniProt P03420 26-109)
[10] = target: RSV F protein mutant pXCS735 (RSV A2, UniProt P03420 26-109)
[11] = target: RSV F protein mutant pXCS749 (RSV A2, UniProt P03420 26-109)

Binder	Response (nm shift) [1]	Response (nm shift) [2]	Response (nm shift) [3]	Response (nm shift) [4]	Response (nm shift) [5]	Response (nm shift) [6]	Response (nm shift) (DS-Cav1)	Response (nm shift) [7]	Response (nm shift) [8]	Response (nm shift) [9]	Response (nm shift) [10]	Response (nm shift) [11]
B1	0.324 nm	0.444 nm	0.213 nm	0.152 nm	0.185 nm	0.205 nm	0.469 nm	0.39 nm	0.173 nm	–	–	–
B2	–	–	–	–	–	–	–	–	–	0.127 nm	0.375 nm	0.206 nm
